Patent US12698483B2 (priority 2019, dated 2026)
“Also recorded” adds a separate entry of the source.

B1: TrGST-C02 (protein, listed as Triticum aestivum)
chain: MAGGDDLKLLGAWASPFVTRVKLALNFKGLSFEDVEEDLSNKSELLLSSNPVHKKVPVLVHNGKPICESVIIVQYIDEAFAGIGPALLPSDPYERAIARFWAAYVDDKLVAPWVQSLRAKTEEEKSEGLKQTFAAVETLEGALRECSKGEGYFGGETVGLVDISLGSLLSWLNATEVMSGTKIFDPVKTPLLAAWMERFSKLDAAKAALPEVDRVVEFAKKRQAQAAAAAAASETK
B2: TrGST-C12 (protein, listed as Triticum aestivum)
chain: MAGGDDLKLLGAWASPFVARVKLALSFKGLSFEDVEEDLSNKSELLLSSNPVHKKVPVLVHNGKPICESMIIVQYIDEAFLVGPSLLPSDPYKRAIARFWAAYIDDKLVTPWVQSLRAKTEEEKSEGVKQTFAAVETLEGALRECSKGEGYFGGETVGLVDISLGSLLSWLIATEVMSGTKIFDPVKTPLLAAWMGRFSELDAAKAALPEVDRVVEFAKKRQAQADAAAAASETK

Tests used:
Type in all cases: biochemical
[1] = Enzymatic DON-GSH conjugation assay (LC-HRMS, Orbitrap); details: 100 ppm DON, 5 mM GSH, pH6, within 24 hours; for formation of the Michael adduct of DON (MH1): against nonenzymatic background; for formation of the epoxide adduct of DON (MH2, DON-13-GSH): result in words
[2] = Enzyme dependent formation of the GSH adduct with roridin A; details: FIG. 17; pCA02 empty vector and no protein as controls
[3] = Enzyme dependent formation of the GSH adduct with T-2 toxin; details: FIG. 11; pCA02 empty vector and no protein as controls
[4] = Enzyme dependent formation of the GSH adduct with trichodermin; details: FIG. 14; pCA02 empty vector and no protein as controls

| Molecule | formation of the Michael adduct of DON (MH1) [1] | formation of the epoxide adduct of DON (MH2, DON-13-GSH) [1] | formation of the GSH adduct with roridin A (Roridin-GSH_MH) [2] | formation of the GSH adduct with T-2 toxin (T-2-GSH_MH) [3] | formation of the GSH adduct with trichodermin (Trichodermin-GSH_MH) [4] |
| --- | --- | --- | --- | --- | --- |
| B1 | clearly enhance Michael adduct formation; also recorded: clearly catalyze | clearly catalyze the formation of the epoxide-adduct; also recorded: catalyzed | Enzyme dependent formation of the GSH adduct | Enzyme dependent formation of the GSH adduct | Enzyme dependent formation of the GSH adduct |
| B2 | clearly enhance Michael adduct formation; also recorded: clearly catalyze | clearly catalyze the formation of the epoxide-adduct; also recorded: catalyzed | Enzyme dependent formation of the GSH adduct | Enzyme dependent formation of the GSH adduct | Enzyme dependent formation of the GSH adduct |
